{
  "source": "the DeepSol protein solubility set",
  "test": "soluble on expression in E. coli; label from the status in PepcDB or PDB records",
  "data": [
    {"sequence": "MIDHTHLRLFQFCDSQFPTGAFSHSFGLETYIQRNIIHDDHTFIAWLKMFLQEQLTYSDGLAMRLVYDALENDDTQKVLHIDKLMFVQNLPKETRVGAKQMGTRMVKLALELYNSPWIAWYHQQMQDKKAKLNPAICFTMLGHHLGVDIETIIDYYLYQNVSSLTQNAVRAIPLGQTAGQKIVTHMIPYIEGTRKQIFELKEADFGMTAPGLELNQMAHENVNVRIFISLEHHHHHH", "values": [
      {"measurement": "soluble on expression in E. coli", "result": "not soluble"}
    ]},
    {"sequence": "NANDNVVIVGTGLAGVEVAFGLRASGWEGNIRLVGDATVIPHHLPPLSKAYLAGKATAESLYLRTPDAYAAQNIQLLGGTQVTAINRDRQQVILSDGRALDYDRLVLATGGRPRPLPVASGAVGKANNFRYLRTLEDAECIRRQLIADNRLVVIGGGYIGLEVAATAIKANMHVTLLDTAARVLERVTAPPVSAFYEHLHREAGVDIRTGTQVCGFEMSTDQQKVTAVLCEDGTRLPADLVIAGIGLIPNCELASAAGLQVDNGIVINEHMQTSDPLIMAVGDCARFHSQLYDRWVRIESVPNALEQARKIAAILCGKVPRDEAAPWFWSDQYEIGLKMVGLSEGYDRIIVRGSLAQPDFSVFYLQGDRVLAVDTVNRPVEFNQSKQIITDRLPVEPNLLGDESVPLKEIIAAAKAELSSAKAELSSAPRHHHHHH", "values": [
      {"measurement": "soluble on expression in E. coli", "result": "soluble"}
    ]},
    {"sequence": "SLAPPAPPVSYGVEEDVFHPVRAKQGMVASVDATATQVGVDILKEGGNAVDAAVAVGYALAVTHPQAGNLGGGGFMLIRSKNGNTTAIDFREMAPAKATRDMFLDDQGNPDSKKSLTSHLASGTPGTVAGFSLALDKYGTMPLNKVVQPAFKLARDGFIVNDALADDLKTYGSEVLPNHENSKAIFWKEGEPLKKGDTLVQANLAKSLEMIAENGPDEFYKGTIAEQIAQEMQKNGGLITKEDLAAYKAVERTPISGDYRGYQVYSMPPPSSGGIHIVQILNILENFDMKKYGFGSADAMQIMAEAEKYAYADRSEYLGDPDFVKVPWQALTNKAYAKSIADQIDINKAKPSSEIRPGKLAPYESNQTTHYSVVDKDGNAVAVTYTLNTTFGTGIVAGESGILLNNQMDDFSAKPGVPNVYGLVGGDANAVGPNKRPLSSMSPTIVVKDGKTWLVTGSPGGSRIITTVLQMVVNSIDYGLNVAEATNAPRFHHQWLPDELRVEKGFSPDTLKLLEAKGQKVALKEAMGSTQSIMVGPDGELYGASDPRSVDDLTAGY", "values": [
      {"measurement": "soluble on expression in E. coli", "result": "soluble"}
    ]},
    {"sequence": "MSHGHSHDGAPCGGHHGDDGAGGSRPSVNDVQALVDQLRLAGVDVSNMPNIPTAPRDMDEARSKSFQFWSTQPVPQMDETVPADVNCAIEENIALDKVRAEPFSLPAGFRWSNVDLSDEEQLNELYNLLTRNYVEDDDSMFRFDYSADFLKWALQVPGFRPEWHCGVRADSNNRLLAFIGAVPQTVRVYDKTVNMVEINFLCVHKNLRSRRVAPVLIREITRRVNVTGIFQAAFTAGIVIPKPVSVCRYYHRSLNPRKLIDVRFSHLSAKMTMARTIKLYKLPEETATRNLREMKSTDVPQVFKLLTTSLKQYSLAPVYNSEEELAHALVPKKGVVYSYVAENQNGKITDFVSFYSLPSTVMGHTTHKTIYAAYLYYYVAGSVTPKQLINDSLILANREKFDVFNALDLMHNEKIFSDLKFGKGDGNLQYYLYNWKCADMKPSQIGLVLQ", "values": [
      {"measurement": "soluble on expression in E. coli", "result": "not soluble"}
    ]},
    {"sequence": "MFHAAFMEERVFSDRGSMRNACSSIEYDGCRQGQSGPLLEEKEVKRKLFGALALVAMLAAPALAEAATRGFATANVNMRSGPSTAYPAVVVIPVGAPLTVHGCLSDTPWCDVSFVNGRGWVAGRYIQTTFRQNRVYVEPRYYRDLGVPVITFEAGRYWDRYYRDRDFYRERDRWRRPPPSGGYWNAPPPSAGWDRPRPRDDWRDGRRDDGRRDEWRDPRQGGPNDGRWERRYGDWNQGDRNQDRPRRDDDRRRWEDENRDRNRDRDSNRDGNRDRPQNQYDGQRGQLEGQPRPPAPAPDAPLQGCIIGSPGCAQRLEHHHHHH", "values": [
      {"measurement": "soluble on expression in E. coli", "result": "soluble"}
    ]},
    {"sequence": "MLRHHSCALLMLILVFVEVFATQSPTFDRQDRDYRPLQFGKRDGYRPLQFGKRDYRPLQFGKRSSGSSGPVVLEPIWEWQ", "values": [
      {"measurement": "soluble on expression in E. coli", "result": "soluble"}
    ]},
    {"sequence": "MSLDSPFGPEDDICILHFNDVYNIEEDVNGTGGVARFVEALKSFRSLNPLLLFSGDVFNPSIMSVTTKGRHMVPFLNMMRVHTACFGNHDFDFGVDHLEYLAGSCNFQWILSNVYDAYTGEPLANARTYRLFEWQGRRIGIMGLVEKDWLKTLPTISEEDVIYKDFVEEANRISKILREKDAELIIALTHMRAPNDELLAKGADDIDLILGGHDHEYYGVKEIGNSVVAKSGTDFRDLTMIVIKPGKHCLVCPNSDSKLHLESCRYSSFSLDQPQNIYEERLIPNNKDGGDIYLREGHHHHHH", "values": [
      {"measurement": "soluble on expression in E. coli", "result": "soluble"}
    ]},
    {"sequence": "MKIVIAPDSFKESLSADKCCQAIKAGFSTVFPDARYVCLPIADGGEGTVDAMVAATGGKRVSVDVSGPMGEKVNGFYGLTGDGKTAIIEMAAASGLMLVAPEARNPLLASSFGTGELIRHALDAGIRHIILGIGGSATVDGGMGVAQALGVRFLDAQGTPLGAGGGNLSRLASIDLQGCDPRISECRIEVACDVDNPLVGPRGAAAVFGPQKGATPEMVETLENGLRNYARVLHALTGRDMSQIPGGGAAGGMGIAAIVFLEAEMKPGIEIVMQAVKLEEAVKEASLVITGEGRIDSQTAGGKAPIGVASVAKRHHVPVIGIAGVLGDGVEVVHRHGIDAVFSILPRLAPLPEVLANGEQNLYHSACNIARVIKLGQDIGTR", "values": [
      {"measurement": "soluble on expression in E. coli", "result": "not soluble"}
    ]},
    {"sequence": "MGSDKIHHHHHHMIHTREEQMEAFGRFLDILDELRVKCPWDRKQTNESLRPNTIEETYELCDALMRDDKKDICKELGDVLLHVAFYAKIGSETGDFDIKDVCDKLCDKLIFRHPHVFGEVKAETAGQVSENWEQLKLKEKDGNKSVLSGVPSALPSLIKAYRIQDKARNVGFDWEEREQVWDKVKEEIREFQVEVANMDKEKAEAEFGDVMFSLINAARLYKINPDNALELTNQKFIRRFNYLEEHTIKEGKNLKDMSLEEMDAIWNEAKRKGL", "values": [
      {"measurement": "soluble on expression in E. coli", "result": "not soluble"}
    ]},
    {"sequence": "MVVAFLIGAGGMFAGMSLFGVNPAEVTQTISSGNASTAQGNLAKINEAYALIDSRYVEDVKDEKLVEGAIQGMLSTLKDPYSTYMDKETAKQFSESLDPELEGIGAEVNKTDGKLIIVSPIKGSPAEKIGIKPNDQILSVDGNSVKDLSREEAVLKIRGKKGTTVAIEIKRAGVADPIVFKIKREKIPIFTVFSSVKQESGKDIGYMQITSFAENTAKEFKDQLKELEKKNIKGLVIDVRGNPGGYLNSVEEILGEIMTDKKPMLQVEQRNGEKKKFSTELKERKPYPISVLIDNGSASASEILAGALKEGEGYDLIGEKTFGKGTVQQAVPFKDGSNIKLTMFKWLTPDGNWIHKKGIKPTVEVKQPDYYHATPIQIEKTLSYNANDVQVKHAQEMLKSLGYVPGREDGYFSKETESALKAFQNANKMEATGQLDKKTAEAIQTKIIEKIRSGENDLQLQSALKLMAK", "values": [
      {"measurement": "soluble on expression in E. coli", "result": "not soluble"}
    ]},
    {"sequence": "MLQGHRTWVFENKPVIISTGVVGGPFEAKGNIPEDFDILHEDLWLGQDSYEKAHKILFEEACSRATEKAELRKDDIQFVLAGDLINQITPTSFACRTLGTPYLGLFGACSTSMEGLALGASIVNAKGAKYLLTGASSHNTAVEKQFRYPTEYGGQKPPTAQWTVTGAGAAILSDTGHGPRVTSATIGRVIDMGLTDPFNMGGAMAPAAVDTIEAHLRERQIDASYYDLIVTGDLGHVGREIAYDLLHKHGTKVTSEQFQDCGIIIYREGQPVIAGASGPGCSATVVYGHLLNRMKRGEFKKILVVATGALLSPLTFQQEETIPCIAHAVSIEFGGATQLEHHHHHH", "values": [
      {"measurement": "soluble on expression in E. coli", "result": "soluble"}
    ]},
    {"sequence": "MSLKGYYSNKISLEDLNKNIEDKKEQTIYFYQTSCVHCQKVSPIVVPLAKDLNVDMKVIDIENLNEPWDKYNIQGTPTIIHFKDGKEVSRISGEQSKDKFKEWFEQTKKEGHHHHHH", "values": [
      {"measurement": "soluble on expression in E. coli", "result": "soluble"}
    ]},
    {"sequence": "FPELMPLRTQWTTIRDEALALQRIQKIRAAEGHTDAGFNSFFRRGWKRFYLKWYGTTHPSAIALCPKTTALLKNIPAIKAAMFAELPPGGDLRPHRDPFAGSMRLHLGLATPNHTSCFIDVDGQRYSWHDGEWVMFDETYIHYARNDTEHNRIILFCDIERPMRWRWAQALNRFVAKHLLAAGTSPN", "values": [
      {"measurement": "soluble on expression in E. coli", "result": "not soluble"}
    ]},
    {"sequence": "MSAGKIDVHGFEKETLFFKNIASGSKGNCTLIWDSTDLIVIDLGITMKKFRDSIKSLDLAGRSISLFISHEHSDHIGGVPTTSKYVDMDVYMRPALSGSFRRKTYEMDGSLVVGNFEIRAFEIPHDAADPVGFSVLWHNRKISVVSDLGKVTDRVIESIRNSDILAFESNHDVEMLRTGSYPEALKRRILSDHGHLSNEQSAEAISRVATDDMRIILTHLSQENNRPEIALNEVKSYLENRNVRYRSIETADQYTGSSLYTLER", "values": [
      {"measurement": "soluble on expression in E. coli", "result": "not soluble"}
    ]}
  ]
}
